Source: the DeepSol protein solubility set

Assay: soluble on expression in E. coli; label from the status in PepcDB or PDB records
With “MPSLFSEDKLPALTYHCSVELNGNIYIFGGLMPCYSYEEDAPMLNDFFVDGIKNLPPPLLPQVINNPSMVNNPHLYVASIPSCRFSKPKMGGYIPPPLLCVQGSKLTDRHIFFYGGFEIRTETRGDENGKYHLKKRLYVNNTGYILDIMSFKF” the “soluble on expression in E. coli” value was “not soluble”. With “MSLKIDAVDLFYLSMPEVTDAADGSQDALLVRVAAGGHIGWGECEAAPLPSIAAFVCPKSHGVCRPVSDSVLGQRLDGPDDIARIAALVGYNSMDLLQAPHMLSGIEMALWDLLGRRLSAPAWALLGYSASHGKRPYASLLFGDTPQETLERARAARRDGFAAVKFGWGPIGRGTVAADADQIMAAREGLGPDGDLMVDVGQIFGEDVEAAAARLPTLDAAGVLWLEEPFDAGALAAHAALAGRGARVRIAGGEAAHNFHMAQHLMDYGRIGFIQIDCGRIGGLGPAKRVADAAQARGITYVNHTFTSHLALSASLQPFAGLEADRICEYPAAPQQLALDITGDHIRPDAEGLIRAPEAPGLGLQVAASALRRYLVETEIRIGGQLIYRTPQLEGHHHHHH” the “soluble on expression in E. coli” value was “soluble”. In the case of “MGSDKIHHHHHHMEIQNLKFEDRDEFKRKSIAAKVISVLQADIDISPMVIDGSWGTGKTEFCHKLINLMHVSDTHHLIYVDAFKADHADEPLMTVLAEVIKVLPDDDSKQSFMKKALPAVRYGLKTIAKAGVSHLLRQDIADVADDFDKQIQGAADKAIDATVESVLKDHVKADKNLKALQVALADIAAIKPIVLFIDELDRCRPNFAVDMLEIIKHTFDVDGVKFVLITNTQQLKASINHCYGLSVDAQRYLDKFVKFTIALPETVDTNAHRESIAAIEHYKNLVRSSHVLVDMKLYECGSIRTIEQIIIANRLSLREVETVVRHIEIYVTLAQSNNLQSNTIFGYKVLTILAIAIYSIQPEVALSILQKKLDAKDIGNCLGISSLSNNIQGRPDEQELICYMLGYTALHNKEHFTPTEDVDVWKQESAQYFRGAHWRTDDFASICAEAIQTLTMC”, the “soluble on expression in E. coli” value is reported as “not soluble”. In the case of “SFAKTGQLFNQTHLEEKKEIAQKAIQFIQEGDSIILDSGSTTTEIAKLLMNYKDLTVITNALNIALILGENHGINLIVTGGEFKAPTLSLTGKMAADSFKDIRANKLFLATAGISSDMKLTYPSLSDLVVKSAMIESASKVYLVADCSKI”, the “soluble on expression in E. coli” value is reported as “not soluble”. In the case of “MGSDKIHHHHHHMRHLKAFYVFHITAESSSYSQAAEKLHITHGAVSKQIKLLENHLSQILFYKQGRGMCLTQEGELLKRYTDIAFNTLDSGVKQLTRESHHYLEVSCEPTLTMRWLMPRLASFFQLTGIDVRLSTAGGPVKLAESGLSLAIRRDDFHIPPEYNKHNLVSEWAGPVFSPEYWCQIQQNWGDIVLLHSDSRPSAWSDWSQRSGHNFSTNKSKSFEHFYFCLQAAVDGLGGAIGSYPLIVDDLTSGRLVAPFGFIPSGHHYVLLSHTEKLVNNELSFFNWLEDTLSLCQPKTAKAAKPV”, the “soluble on expression in E. coli” value is reported as “not soluble”. In the case of “MGENYKFFNHKDCEFFPCHKTNKPEEFNCLFCYCPLYALGENCGGNFKYTDKGIKDCSSCILPHKKDNYNYIMSKFQDLVKITSKKLEHHHHHH”, the “soluble on expression in E. coli” value is reported as “not soluble”. With “LNKWMKELSKTTSLDPVKPVDVLLTENDITIKNIRDMNRLRPFGTDFSRPIFEMDDLSVSSVKAIGQQKNHLKLTLGESNIAALFWQNGHLEPELQDEQPINILGSVQINEWNGNQSPQ” the “soluble on expression in E. coli” value was “not soluble”. With “MEITDVRLRRVETDGRMKAISSITIDGEFVIHDIRVIDGNEGLFVAMPSKRTPDGEFRDIAHPINSGTRAKIQEAVLAAYEVADEPAVNEESSADESVVEEN” the “soluble on expression in E. coli” value was “not soluble”. With “MSVKLRLPQSAYPIFDRIEEMAWARHYQQIVREEKETELADDLEKGLPQHLFESLCIDHLQRHGANKQAISHAFDDDVEFQERMAEHIRYMAETIAHHQVDIDLEDLEHHHHHH” the “soluble on expression in E. coli” value was “not soluble”. For “MGSDKIHHHHHHDDNSYSLGDIWIAVATVVPEGNNVYYLRLDDGDKLWPAATNYPNYQPKPNQRALVNFTILADSTQSNLGGFSHYIKVNAIHNILTKSIAKNEGAANDSIYGTDPVSIYNNNMWIGDGYLNIYFETLWGGKTAHFINLIQPDAENDPYTLEFRHNAYDDPQYTIGAGRVAFNLSSLPDTKGETVDLVVNYWTSEGKQAYKLKYNSDKTKMEDTSQGYTNDSISNITDMK”, the “soluble on expression in E. coli” value was “not soluble”. With “GMDRTLTHQPQEYAVSVSVGEVKLKGNLVIPNGATGIVLFAHGSGSSRYSPRNRYVAEVLQQAGLATLLIDLLTQEEEEIDLRTRHLRFDIGLLASRLVGATDWLTHNPDTQHLKVGYFGASTGGGAALVAAAERPETVQAVVSRGGRPDLAPSALPHVKAPTLLIVGGYDLPVIAMNEDALEQLQTSKRLVIIPRASHLFEEPGALTAVAQLASEWFMHYLR” the “soluble on expression in E. coli” value was “soluble”. With “MAHHHHHHMRRIQLAFLTKLWQRRNCGSFNERALVQRTCEHIYCSSSAREQLRQLIHESSVENALRHLGEFSNDVSVLKGSAWLGQLSKAPDVVGRIAVILPQFEKWYVARKAPEKVTMHEPWDWYPKARFMRRRFVFHYGPTNSGKTHAALETLVKAKSGVYCAPLKALAAQVWKRIDASVPCDLLIGDERRFGGGAEHVSCTVEMTPIDYQIDVGVIDEVQMIADRDRGWAWTRALLGLPAREIHLCGEERAIPLIRKVLYKTHELQRLEVVPHKRLVPLEVSPSLDGDLRRIENGDTLVCFSRRAIFDMKKKLENISGMAPHCIYGSMPFSVREAQADAFNNGTRDVIEGKSGKKHVLISTDAIAYGLNMSIERIIFTSMRKFDGKQMVTLPQATILQVAGRAGRFGVLRSHKFGRCTTLDSNDFAVLCEAVNSRLPSLQKAGLLPTAEVLELYIRLREAEEGGRVTENNLASFYQRMREFSECCQASDLFFPCDLSRSLLQVAKELEAVTDLSLSDRILFCYVPLNDRGKETYDLLRAFGHDHAAGRHVVLRIDEEFERLVKQCDLVCSGDTRRAHQVLTRMEHLYRVAEMYCWLAWRFGKTFVHLETATALKERAALKMEEILQHL” the “soluble on expression in E. coli” value was “not soluble”. In the case of “MGSDKIHHHHHHMNQEKIQELVSRSQQDDKRAFALLVSEFQPLVFRLAFRLLCDEEEARDITQETFVKVWLSLKTYNQENRLSTWLYKITCNTCYDRLRSLRHSPLDNESAFSDSVNIPSDDHIEISLSNKQLKELILRYTNELPPQQKLVFTLRDVEELEVAEVQIITGLSPEKIKSTLYLARKNIRNKMNQIDPDL”, the “soluble on expression in E. coli” value is reported as “not soluble”. In the case of “METVQLRNPPRRQLKKLDEDSLTKQPEEVFDVLEKLGEGSYGSVYKAIHKETGQIVAIKQVPVESDLQEIIKEISIMQQCDSPHVVKYYGSYFKNTDLWIVMEYCGAGSVSDIIRLRNKTLTEDEIATILQSTLKGLEYLHFMRKIHRDIKAGNILLNTEGHAKLADFGVAGQLTDTMAKRNTVIGTPFWMAPEVIQEIGYNCVADIWSLGITAIEMAEGKPPYADIHPMRAIFMIPTNPPPTFRKPELWSDNFTDFVKQCLVKSPEQRATATQLLQHPFVRSAKGVSILRDLINEAMDVKLKRQESQQREMDQDDEENSEEDEMDSGTMVRAVGDEMGTVRVASTMTDGANTMIEHDDTLPSQLGTMVINAEDEEEEG”, the “soluble on expression in E. coli” value is reported as “soluble”. For “GPGSMLTRSLVCRASLQSRRRWEQRIVSVLSENKEEGVDAVAKRFQRVYKERRYTPVEEAFPPLAAAAAAPGLRSSAAKESVESVQQPANPLVLRVAFLGPQNAGKTSLVNSMALSNVGAVSNRYGSTKDWTKAVATVHETQLLLLDTPGIVPRDTQRVRRKFASGTAKAYDALFVSDLVVLALPVGVGFVEKEHKVVATEVVRRAAGRELPVVIAMTMMDKVQTPWHRELYFAMRTDLESLGLPTAATHEVSVKGGSGLVELKDCLCQYAKPGAWEHYRREATDLNPPQRVAELLRQTFMELLPHEIPHCMRHRVLGWTRKESGTTEVVVEAFFDRPAYMFTFYGKLEAICLRAQQVTERELAPQRFRFVFQAFIAPGGLSNS”, the “soluble on expression in E. coli” value was “not soluble”. For “SLSFLYFNDNSKIANAPLKNRFEKTQKESLIIKNNNEDKKAKSKPKFYLIIDDVGYDEFMLEQFIKLNLKITYAIIPFLPKSMSLYKKLKNANKTVIIHFPMQSKHRNSIEKFHINIKDKKEEIHKKIEKAFKKYPDAKIMNNHMGSLITSNKDLMKIILEKLKEIDRYFFDSVTIAGSVPEIIGKEIGVKVEKRDVFLDSKDTEESVTKELEKAKNIARKNGMVKVIGHIWSKNTLKVLKKEGPDLNQEFEFDNLLNLYEETIR”, the “soluble on expression in E. coli” value was “soluble”. For “MNVANNNCGQMLSDSSESSEPPRAQAGAVFGKKDKGKKADTKKKNTATEGSKRVKKEKKKDDGEAAKGDPTNKTNMTPAPPQTHPIVEQWVLRALDVGVDKLREEFRGLAKYTRPDMTQVMFNANQSPDIAITKNRYQDVPCQDQSAVKLDQPSPCNYIHANYVGCPMIPEKRFICAQGPLDQTIDEFWWMVIQNKVEQIVMLCKTVEMGKLKCAQYWPAAQGEKLTLKSGCVVENVSGSKPMERDPEIQITMLNLTYSGGQTMSVRHLQWTEWPDRGVPPCKLTSLELLSAIRGSKVPIVVHCSAGIGRTGTIVAIEYILEKIAENKPCPPMPELVKALRDQRAFSIQNDVQYLFIHRVMLNYFLEKYKEKYAALLTAENVAKYDKFIKDYNAAVGQ”, the “soluble on expression in E. coli” value was “not soluble”. For “GSHMDKIKLLKAAFLQYCRKDLGHAQMVVDELFSSHSDLDSDSELDRAVTQISVDLMDDYPASDPRWAESVPEEAPGFSNTSLIILHQLEDKMKAHSFLMDFIHQVGLFGRLGSFPVRGTPMATRLLLCEHAEKLSAAIVLKNHHSRLSDLVNTAILIALNKREYEIPSNLTPADVFFREVSQVDTICECLLEHEEQVLRDAPMDSIEWAEVVINVNNILKDMLQAASHYRQNRNSLYRREESLEKEPEYVPWTATSGPGGIRTVIIRQHEIVLKVAYPQADSNLRNIVTEQLVALIDCFLDGYVSQLKSVDKSSNRERYDNLEMEYLQKRSDLLSPLLSLGQYLWAASLAEKYCDFDILVQMCEQTDNQSRLQRYMTQFADQNFSDFLFRWYLEKGKRGKLLSQPISQHGQLANFLQAHEHLSWLHEINSQELEKAHATLLGLANMETRYFAKKKTLLGLSKLAALASDFSEDMLQEKIEEMAEQERFLLHQETLPEQLLAEKQLNLSAMPVLTAPQLIGLYICEENRRANEYDFKKALDLLEYIDEEEDININDLKLEILCKALQRDNWSSSDGKDDPIEVSKDSIFVKILQKLLKDGIQLSEYLPEVKDLLQADQLGSLKSNPYFEFVLKANYEYYVQGQI”, the “soluble on expression in E. coli” value was “soluble”. In the case of “MSSKANHAKTVICGIINVTPDSFSDGGQFFALEQALQQARKLIAEGASMLDIGGESTRPGSSYVEIEEEIQRVVPVIKAIRKESDVLISIDTWKSQVAEAALAAGADLVNDITGLMGDEKMPHVVAEARAQVVIMFNPVMARPQHPSSLIFPHFGFGQAFTEEELADFETLPIEELMEAFFERALARAAEAGIAPENILLDPGIGFGLTKKENLLLLRDLDKLHQKGYPIFLGVSRKRFVINILEENGFEVNPETELGFRNRDTASAHVTSIAARQGVEVVRVHDVASHRMAVEIASAIRLADEAENLDLKQYK”, the “soluble on expression in E. coli” value is reported as “soluble”. In the case of “MLARVCERTPISTPAWTDTLTRLAPDASSVLARGPWTWKYALPPAVVGVAALAASSPWGVVGVALAAFVVWFHRDPDRSPNGAGVVVPADGTVSVIRTRDDGRVRVGVFMNVHNVHVNRVPVAGRVESVVHEPGGHRPAFSKESAHNERVRIETAEWTVVLIAGAFARRIHPYVEAGEDLARGDRLGHISFGSRADVVLPPAYDRGDVVVESGQTVRAGETVLARLEHHHHHH”, the “soluble on expression in E. coli” value is reported as “soluble”. In the case of “SESLVVCDVAEDLVEKLRKFRFRKETHNAAIIMKIDKDERLVVLDEELEGVSPDELKDELPERQPRFIVYSYKYQHDDGRVSYPLCFIFSSPVGCKPEQQMMYAGSKNKLVQTAELTKVFEIRNTEDLTEEWLREKLG”, the “soluble on expression in E. coli” value is reported as “soluble”.
